Results taken from the nanobody polyreactivity screen of Harvey et al. (2022).

Assay: yeast display, Sf9 membrane polyspecificity reagent, FACS + sequencing; frameworks hold sequencing errors
Procedure, shortened: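 Using colony PCR, genes from sorted yeast display clones were amplified, then sequenced on MiSeq at 2 × 250 and filtered by CDR length. The clones had been stained with 10% biotinylated, detergent-solubilized Sf9 membrane reagent for 1 hour at 4 °C and sorted by FACS into low and high (top ~1%) gates on anti-HA and streptavidin fluorescence. Polyreactivity labels come from the gate of origin.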

Sequence | polyreactivity (PSR sort gate)
QVQLVESGGGLVQAGGSIRLSCAASGSTFRYYTMGWYRQAPGKERELVATITRDGRTYYADSVKGRFTISRDNAKNTVYLQMYSLKPEDTAVYYCNVRRAFSGWRGYDYWGQGTQVTVSS | high polyreactivity
QVQLVESGGGLVQAGGSLRLSCSASGSTFFPYAMGWYRQAPGKERELVAAITSGGNTNYADSVKGRFTISRDNAKNTVYLQMNSLKPEDTAVYYCAADYLWHYRKYDYWGQGTQVTVSS | low polyreactivity
QVQLVESGGGLVHAGGSRRLSCAASGNFFRYYVLGWYRQAPGTERECVAAITSSGGSKYYADSVKGRFTISRDNANNTVYLQMNSLKPEDTAVYYCAKDYWDPGWAEYDFWGQGTQVTVSS | low polyreactivity
QVQLVESGGGLVQAGGSLRLSCAASGNTFGYNAMGWYRQAPGKERELVASITWSGGSTYYADSVKGRFTISRDNAKNTVYLQMNSLKPEDTAVYYCNADVRYGRDHWGQGTQVTVSS | low polyreactivity
QVQLVESGGGLVQAGGSLRLSCAASGSIFKYAMGWSRQAPGKERELVAAINQRGGRTYYADSVKGRFTISRDNAKNTVYLQMNSLKPEDTAVYYCNAYYLRTSSTEYDYWGQGTQVTVSS | high polyreactivity
QVQLVESGGGLVQAGGSLRLSCGASGFTFPYYAMGWYIQAPGKERELVAAITSSGGSTYYADSVKGRFTISRDNAKNTVYLQMNSLNPEDTAVYYCAVDAYYYKWYDYWGQGTQVTVSS | high polyreactivity
QVQLVESGGGLVQAGGSLRLSCAASGFTFWTYARGWYRQAPGKERELVAAIDSGGSTYYADSVKGRFTISRDNAKNTVYLQMNSLKPEDTAVYYCNAGPSVTSGYDYDYWGQGTQVTVSS | low polyreactivity
QVQLVESGGALVQAGGSLRLSCAASGIVFKRYAMGWYRQAPGKEREFVATISYTGGRTYYADSVKGRFTISRDNAKNTVYLQMNSLKPEDTAVYYCATLYRSSKHQPLDYWGQGTQVNVSS | high polyreactivity
QDQLVESGGGLVQAGGSLRLSCAASGFTFTRYAMGWYRQAPGKERELVAAITRRSGRTYYADSVKGRFTISRDNAKNTVYLQMNSLKPEDTAVYYCNAVRTTPSGSLPLAYDYWGQGTQVTVSS | high polyreactivity
QVQLVESGGGLVQAGGSLRLSCAASGRIFGVYAMGWYRQAPGKERELVAAISEGGGSTNYADSVKGRFTISRDNAKNTVYLQMNSLKPEDTAGYYCAATYRTGVRRYYSWGQGTQVTVSS | low polyreactivity
QVQLVESGGGLVQARGSLRLSCAASGRIFPGYAMGWYRQAPGKERELVAGISNDASTNYADSVKGRFTISRDNAKNTVYLQMNSLKPEDTAVYYCAAEISSLSFPRYDYWGQGTQVTVSS | low polyreactivity
QVQLVESGGGLVQAGGSLRLSCAASGRTFYANTMGWYRQAPGKERELVAGITSGGSTSYADSVKGRFTISRDNAKNTVYLQMNSLKPVDTAVYYCAAQFYRYTATGYYADGYWGQGTQVTVSS | low polyreactivity
QVQLVETGGGLVQAGGSLRLSCAASGFIFPIYAMGWYRQATGKERELVAVISGSGGSTYYADSVKGRFTISRDNAKNTVYLQMNSLKPEDTAVYYCAARGRNVAGYKGGYWGQGTQVTVSS | low polyreactivity
QVQLVESGGVLVQAGASLRLSCAASVRIFWLNARGCYRQAPGKEREFVASITYGSDSTYYSDSVNGRFTISRDNAKNTVYLQMNSLIPEDTSVYYCNREGWHYGPYEYWGQVTQVTVSS | low polyreactivity
QVQLEDSGGGLVQAGGSLRLSCAASGFIFRYYAMGWYRKATGKERELVAAIDYSGGSTNYADSVKGRFTISRDNAKNTVYLQMNSLKPEDTAVYYCKAVHETTWQLYDYWGQGTQVTVSS | low polyreactivity
QVQLVESGGGLVQAGGSLRLTCAASGRTFWRYAMGWYRQAPGKERELVAAITSGGGSTYYADSVKGRFTISRDNAKNTVYLQMTSLKPEDTAVYYCNRAGRGRSFKGDYWGQGTQVTVSS | high polyreactivity

Sequence | polyreactivity (PSR sort gate)
QVQLVESGGGLVQAGGSLRLSCAASGRIFRYYAMGWYRQAPGKERELVAAISGTGGNTYYADSVKGRSTISRDNAKNTVYLQMNSLKPEDTAVYYCAADQEWYYYFDSFAYYILDYWGQGTQVTVSS | high polyreactivity
QVQLVESGGCLVQAGGSLRLSCAASGSIFSWYGMSWYRQAPGKERELVAAITWGGGSTYYADSVKGRFTISRDNAKNSVYLQMNSLKPEDTAVYYCEVDYWGQCTQVTVSS | low polyreactivity
QVQLVESGGGLVQAGGSLRLSCAASGITLNRNAMGWYRQAPGKERELVARISRRGGTTYYADSVKGRFSISRDNAKNTVYLQMNSLKPEDTAVYYCNAGPYGGNPFDYWGQGTQVTVSS | high polyreactivity
QVQLVESGGGLVQAGGSLRLSCAASGSTLDVYDMGWYRKAPGKEREFVATISFSVGSTDYADSVKGRFTISRDNAKNTVYLQMNSLKPEDTAVYYCAADVSEWSNQYFDSYLRMDYWGQGTQVTVSS | low polyreactivity
QVQLVESVGGLVQAGGSLRLSCAASGRIFLYYAIGWYRQAPGKERELVAVISWSGGSTYYADSVKGRFTISRDNAKNTVYLQMNILKPEDTAVYYCAADVVPTWYGYNYDYWGQGTQVTVSS | high polyreactivity
QVQLVESGGGLVQAGGSLSLSCAASGNTFYGYAMGWYRQAPGKERELVASITLSGDSTYYADSVKGRFTISRDNAKNTVYLQMNSLKPEDTAVFDCAGVYTYPLGYYHYTYDYWGQGTQVTVSS | low polyreactivity
QVQLVESGGGLVQAGGSLRLSCAASGSIFRKNAMGWYREAPGKERELVATISGGGSTTYADSVKGRFTISRDNAKNTLYLQMNSLKPEDTAVYYCAARSTWFQIRYGYWGQGNQVTVSS | high polyreactivity
QVQLVESGGGLVQAGGSLRLSCAASGSTFWYYAMGWYRQAPGKESELVAGITQSGGSTYYADSVKGRFTISRDNAKNTVYLQMNSLKPEDTAVYYCAKDGRVSGDFDYWGQGTQVTVSS | low polyreactivity
QVQLVESGGGLVQAGGSLRLSCAAYGNIFHRNAMGWYRKAPGKESEVVAAISWSGGSTYYADSVKGRFTISRDNAKNTVYLQMNSLKPEDTAVYYCNAYYYYRFKQSHPGLRSYYWGQGTQVTVSS | high polyreactivity
QVQLVESGGGLVQAGGSLRLSCAASGRIFYPYAMGWYRQAPGKERELVASITSGGGTYYADSVKGRFTISRDNAKNSVYLQMNSLKPEDTAVYYCAAKYYTSWIRYDYWGQGTQVTVSS | low polyreactivity
QVQLVESGGGLVQAGGSLRLSCAASGFTASYAMGWYRQAPWKERELVATINSGGGSTRYADSVKGRFTISRDNAKNTVYLQMNSLKPEDTAVYYCAKRWRRNFDYWGQGTQVTVSS | high polyreactivity
QVQLVESGGCLVQAGGSHRLSCAASGLTFPKYAMGWYRQAPGKERELVARISYSGASTYYADSVKGRFTISRDNAKNTVYLHMNSLKPEDTAVYYCYARIYRVFYVHFAPYYYWGQGTQVTVSS | high polyreactivity
QVQLVESGGGLVQAGGSLRLSCAASGRIFSWNAMGWYRQAPGKERELVARITNGGSTYYADSVKGRFTISRDNAKNTVYLQMNSLKPEDTAVYYCAAKYRYYWSSKSKGDYWGQGTQVTVSS | high polyreactivity
QVQLVESGGGLVQAGGSLRLSCAASGFIFGHYAMGWYRQAPGKERELVAAITRGGRTNYADSVKGRFTISRDNAKNTVYLQMNSLKPEDTAVYYCNALGKALYRSRFYYWGQGTQVTVSS | high polyreactivity
QLQLQESGGGLVQAGGSLRLSCAASALITKVYSMGWYRQAPGKERELVAVINSNGGSTYYADSVKGRFTISRDNAQNTVYLQMNSLKPEDTAVYYCRYFRPYGYNYWGQGTQVTVSS | high polyreactivity
QVQLQVSGGVLVQAGGSLRLTCAASGSIFLTSEMGWYRQAPGKERELVAAIATGTSTNYADSVKGRFTISRDNAKNTVYLQMNSLKPEDTAVYYCETYHYWGQGTQVTVSS | low polyreactivity
